{"source": "the domain aggregation screens of Martell et al. (2025)", "test": "soluble fraction after stress (log2 fold change); higher = more stays soluble; pooled small domains, quantitative proteomics", "details": "stress: pH 4", "summary_of_the_method": "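Pooled custom libraries of small protein domains were subjected to pH 4 and measured by high-throughput quantitative proteomics. The log2 fold change in soluble amount per domain is reported, higher values meaning more remained soluble. This is used as a measure of aggregation propensity.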"}
{"sequence": "HMANEGWDIYKLDIRNHKQPNGEYYSEKEIQSTINNTFGKGSFNVDWKKYEKDKEYREKTNYYYFQAKYFV", "values": [{"measurement": "soluble fraction (log2)", "result": -0.24}]}
{"sequence": "HMSISSSEAARSAVASSGGTVLGVSKASHGGYKAWAVRIQRADGSVVTGYVDRASGTVYDWVVNQAA", "values": [{"measurement": "soluble fraction (log2)", "result": 0.379}]}
{"sequence": "HMIFEETVFKDIAFGPKNMGLSEAEIKRRVYETAENIGLSQELMERSPFELSGGQKRRVAIAGVMAMEP", "values": [{"measurement": "soluble fraction (log2)", "result": -0.878}]}
{"sequence": "HMGFYDLFINLADKVGSLADVTQILAEARINLVNVHILEIREEIDGIAQLTFSSEKDRQKALELLKTKYK", "values": [{"measurement": "soluble fraction (log2)", "result": -1.52}]}
{"sequence": "HMEGVSSESVKEMLKSIIDGEDPHNPVSDQRITDILNSRGINISRRTVAKYRDELGIASSSRRKRY", "values": [{"measurement": "soluble fraction (log2)", "result": 0.112}]}
{"sequence": "HMYVTGSAIRRLREKRKLTQAQLAAALSVSDKTVSKWETARGLPDITLLEPLARALQVSVPELLSGEEV", "values": [{"measurement": "soluble fraction (log2)", "result": -0.0388}]}
{"sequence": "HMPLVIIRGIEGVFSSEEKAEAIRKVTDALVSVKGENVRGFAWVVFEEVKSGDWGIGGESITAEKVIMSL", "values": [{"measurement": "soluble fraction (log2)", "result": -0.39}]}
{"sequence": "HMSSEDTQSRDRARKELSNEMSRIMKRYGLDYQPRDNADDIMNRLKAAGADENTLAYVQEKLK", "values": [{"measurement": "soluble fraction (log2)", "result": 0.0559}]}
{"sequence": "HMEVGDTYLGKVTRVSSFGAFIEVLPGKEGLMRQNDAGEGGMPEVGDEVMVRVMEVDHLGRINLSGKLDD", "values": [{"measurement": "soluble fraction (log2)", "result": -1.32}]}
{"sequence": "HMNEPITIALREAEEAANKILNEGVHSVELSPQNGYVRRLQHELIARYGLTSASRGSDPSRRVSVGAN", "values": [{"measurement": "soluble fraction (log2)", "result": -0.273}]}
{"sequence": "HMKRGDAYASEMIARLKEAHLIVMEGTLYPLLTRLKNDGLLSYRWEESTQGPPRKYYSITPVG", "values": [{"measurement": "soluble fraction (log2)", "result": -0.081}]}
{"sequence": "HMTMKQVFIETDANVNQKIMLNEKEAHHLFDVLRTSDKETIRVVTNTSQVFLARVQQKPYIYLFDKMTVE", "values": [{"measurement": "soluble fraction (log2)", "result": -1.76}]}
{"sequence": "HMPVYEEEVPAALDGQRLDRVVAMVTGLSRSEVGALLAAGAVTVDGTTPAKGSVRLAAGSIVSVTVS", "values": [{"measurement": "soluble fraction (log2)", "result": -0.366}]}
{"sequence": "HMDKRYYYRILGLVGEPTRDQIEAAYETRIAKLRSSDYGDDPLYARRKISEVTMAYKVLTGS", "values": [{"measurement": "soluble fraction (log2)", "result": 0.139}]}
{"sequence": "HMTNTYEVIKNDIIFGVLPPLKKLKLLELKKKYITSVSTLREILSRLSGDGFVVSKEQKGFYVSAV", "values": [{"measurement": "soluble fraction (log2)", "result": -0.22}]}
{"sequence": "HMENLVPVVVATTNIEPRTQITDAMVKVEQIPALGRNESMLEDPALVVGGYATGKIYAGQSFIQPMVSK", "values": [{"measurement": "soluble fraction (log2)", "result": 0.192}]}
{"sequence": "HMEARYQLREVSLDGLRSGMILNADVLSTDGVLMARKGLEVSGLLRSRLEAFAKMERIEPTFKVLVPIAPP", "values": [{"measurement": "soluble fraction (log2)", "result": 0.284}]}
{"sequence": "HMTKAILTANDVRNGDIVFWTADQRWSTSIDDAAIGYGKDDTDQLADAGKQAEAANTVVGAYLIALR", "values": [{"measurement": "soluble fraction (log2)", "result": -1.14}]}
{"sequence": "HMFEDEYLETMYAFYETDPQALVRTGDLASSLKVSPASATEMVQRLASKGFVDYIPYKGASLTELGLAM", "values": [{"measurement": "soluble fraction (log2)", "result": -0.438}]}
{"sequence": "HMQNFLSITSKEKIDIGNFQLISFKFENNLYDYVISGNKSELLIFQEKTIENNNENIEKITSNF", "values": [{"measurement": "soluble fraction (log2)", "result": -0.847}]}
{"sequence": "HMNIDEIIGKKAVVIESIDNLQGTGKVRYQGMEWTARAEEENDRIEKDAEVEIIAVKGVKLIVKMK", "values": [{"measurement": "soluble fraction (log2)", "result": -0.19}]}
{"sequence": "HMVAGGTVSRKLSIETGLPKRKSLIGSWLDQNSVWHNIISVRHRNGYGDGVNYGFYLRSLLTSEGNLAW", "values": [{"measurement": "soluble fraction (log2)", "result": 0.0466}]}
{"sequence": "HMKIVFGHVKWFDIDKGFGFLVLEDEGGDVLLHANVLKNFGRTSVSEDTKIEFEFLETDKGRQVSTIYNIL", "values": [{"measurement": "soluble fraction (log2)", "result": -2.19}]}
{"sequence": "HMRQSDIAAAFRESILRSSKGFQYLHTRDFVTALRRRGIHLSEVEANSWIAREKTYFVDSALDHSENRLWI", "values": [{"measurement": "soluble fraction (log2)", "result": -0.634}]}
{"sequence": "HMGGLLSVIQKKAINNVKDRYSENAIKSMTKVQLHDLIKAETSRLLDPANAKETPEYQAFLEE", "values": [{"measurement": "soluble fraction (log2)", "result": 0.116}]}
{"sequence": "HMLAQVSDEGPIRAMVEAVMARSTQQLEDYKNGKVKLRQYFFGEVMKAAKGKANPTVINKLLDEMLPETL", "values": [{"measurement": "soluble fraction (log2)", "result": 0.0418}]}
{"sequence": "HMTTKYMVLVNWVKEKVRTNELKTGEKLYSEHEFSRMFHMSRQTVRHGISILERENIVERRQGSGTFIKDA", "values": [{"measurement": "soluble fraction (log2)", "result": -0.223}]}
{"sequence": "HMKETLSDTVSRKLEDMITTQMKAGNRLPTEMVLAEMYSVGRSTIRESLKALSSKGLIVRKKDGTFVSDRV", "values": [{"measurement": "soluble fraction (log2)", "result": 0.22}]}
{"sequence": "HMQQSQLDDIKSVVGGDEGYNKLREWTQANVPDETLKAFDKILDTQDPTMIKVAVEGFAAQMRQAE", "values": [{"measurement": "soluble fraction (log2)", "result": -0.508}]}
{"sequence": "HMAEQLGNSRTANMVMLGAMIERTGVISIDSAMEALKATFGPKKEHLLPINRQAMEAGAAAARAV", "values": [{"measurement": "soluble fraction (log2)", "result": -0.517}]}
